{"source": "FireProtDB (doi:10.1016/j.jmb.2005.09.061)", "proteins": {"B1": {"name": "Alpha-lactalbumin wild type, P00712 (protein)", "chain": "MMSFVSLLLVGILFHATQAEQLTKCEVFQKLKDLKDYGGVSLPEWVCTAFHTSGYDTQAIVQNNDSTEYGLFQINNKIWCKDDQNPHSRNICNISCDKFLDDDLTDDIVCAKKILDKVGINYWLAHKALCSEKLDQWLCEKL"}}, "conditions": "Capra hircus, pH 7, Thermal, CD, sodium cacodylate 50 mM, NaCl 50 mM, reversible: Yes, whole UniProt chain shown", "note": "Values joined by “and” are separate entries in the source; they are usually repeats but may differ in a detail not shown here. Equal values may be shown once.", "data": [{"protein": "B1", "values": [{"measurement": "heat capacity change of unfolding", "setting": "59 °C", "value": 1.8, "unit": "kcal/mol/K"}, {"measurement": "unfolding free energy", "setting": "59 °C", "value": 0, "unit": "kcal/mol"}, {"measurement": "heat capacity change of unfolding", "value": 1.8, "unit": "kcal/mol/K"}, {"measurement": "unfolding enthalpy (van 't Hoff)", "value": "85.1 kcal/mol and 69.5 kcal/mol"}]}]}
